We go through four molecules from paper PMC11519345, “Structural variation of types IV-A1- and IV-A3-mediated CRISPR interference”.

The target in series [1] is Type IV-A3 effector complex (Cas5-Cas8-Cas7-Cas6 crRNP), DinG-free (Klebsiella pneumoniae) (UniProt A0A8G1XN67+A0A7Z7WW72+A0A333ESG5). As to the kind of experiment: EMSA. The following applies: crRNA; EMSA: 10 mM HEPES pH 7.5, 150 mM NaCl, 1 nM DNA, on ice then 20 min RT, 6% native PAGE in TBE at 4 C; cryo-EM: 10 uM complex + 15 uM DNA in the same buffer …; scale: fold tighter than type IV-A1 complex on its target.

Series [2] has as its target type IV-A1 Cas7 (Csf2) from Pseudomonas oleovorans (Pseudomonas oleovorans). As to the kind of experiment: cryo-EM structure; type IV-A1 effector complex (10 µM) reconstituted with bubbled target dsDNA (15 µM) in 10 mM HEPES-Na pH 7.5, 150 mM NaCl, then SEC; particle class without DinG.
In series [3] the target is type IV-A3 Cas7 (Csf2) from Klebsiella pneumoniae (Klebsiella pneumoniae). The series is described as follows: cryo-EM structure; type IV-A3 effector complex (10 µM) reconstituted with bubbled target dsDNA (15 µM) in 10 mM HEPES-Na pH 7.5, 150 mM NaCl, then SEC; without DinG.
Series [4] has as its target T1, Type IV-A1 effector complex (Cas5-Cas8-Cas7-Cas6 crRNP), DinG-free (Pseudomonas oleovorans, UniProt A0A379PL53;A0A379PIR4;A0A379PIR9;A0A379PNK2 1-222;1-240;1-347;1-236).
T1 sequence 1: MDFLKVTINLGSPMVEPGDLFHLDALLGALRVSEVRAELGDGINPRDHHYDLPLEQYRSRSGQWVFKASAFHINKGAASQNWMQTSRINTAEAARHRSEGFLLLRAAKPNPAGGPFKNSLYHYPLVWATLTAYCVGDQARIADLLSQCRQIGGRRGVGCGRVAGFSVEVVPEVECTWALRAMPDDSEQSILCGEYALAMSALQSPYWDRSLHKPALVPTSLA
T1 sequence 2: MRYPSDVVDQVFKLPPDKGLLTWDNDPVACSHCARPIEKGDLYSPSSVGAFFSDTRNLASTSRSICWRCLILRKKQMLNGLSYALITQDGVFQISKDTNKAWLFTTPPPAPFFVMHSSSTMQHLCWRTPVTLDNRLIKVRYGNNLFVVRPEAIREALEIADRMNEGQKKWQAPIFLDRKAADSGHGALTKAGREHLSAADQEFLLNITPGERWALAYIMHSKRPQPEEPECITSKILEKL
T1 sequence 3: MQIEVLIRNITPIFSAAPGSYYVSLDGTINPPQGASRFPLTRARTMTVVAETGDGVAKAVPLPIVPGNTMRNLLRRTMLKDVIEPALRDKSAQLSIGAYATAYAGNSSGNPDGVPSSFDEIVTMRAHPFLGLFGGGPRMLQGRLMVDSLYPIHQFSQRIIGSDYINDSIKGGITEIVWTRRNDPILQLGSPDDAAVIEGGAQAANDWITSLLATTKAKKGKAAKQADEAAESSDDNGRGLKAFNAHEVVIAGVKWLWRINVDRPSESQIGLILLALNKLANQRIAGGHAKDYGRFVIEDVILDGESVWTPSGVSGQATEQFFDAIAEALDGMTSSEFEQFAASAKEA
T1 sequence 4: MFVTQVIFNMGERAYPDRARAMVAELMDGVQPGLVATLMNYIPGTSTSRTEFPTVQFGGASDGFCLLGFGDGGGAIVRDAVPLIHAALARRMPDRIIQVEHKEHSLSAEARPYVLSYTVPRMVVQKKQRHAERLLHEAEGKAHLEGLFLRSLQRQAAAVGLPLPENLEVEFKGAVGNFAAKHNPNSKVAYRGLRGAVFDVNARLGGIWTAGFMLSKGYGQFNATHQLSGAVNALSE
The series is described as follows: cryo-EM; crRNA; no DinG; 3.0 A; PDB code not assigned in the material (8RC2/8RC3/8RFJ); EMSA: 10 mM HEPES pH 7.5, 150 mM NaCl, 1 nM DNA, on ice then 20 min RT, 6% native PAGE in TBE at 4 C; cryo-EM: 10 uM complex + 15 uM DNA in the same buffer, 10. The following applies: protein: recombinant; tags: His6 C-terminal on Cas8; copies: 1;1;5;1; bubble: non-complementary protospacer, paired 15 nt and 14+ nt ends. Background: A gel shift assay detects complexes by their altered migration in electrophoresis.

For IV-A3 EMSA target, no mismatch, in series [1], the binding signal is 10.
“type IV-A1 Cas7 (Csf2) from Pseudomonas oleovorans (natural protein)”: the stoichiometry N (as a rule, the number of molecules, sites or subunits per partner or assembly) in series [2] is 5.
Molecule “type IV-A3 Cas7 (Csf2) from Klebsiella pneumoniae (natural protein)” gave a stoichiometry N in series [3] of 6.

B1: Type IV-A1 bubbled target DNA (TS/NTS) for cryo-EM (dsDNA)
DNA 1: CGGTCGGGTCATACGTCGCGTCTCGAATCTGATGCGTAACTTGGATGCTTCGTGCGTGATG
DNA 2: CATCACGCACGAAGACCAAGTCAATGCTTAGTCTAATACCTGCGCTCGTATGACCCGACCG
In the case of B1, in series [4], the binding result is on record as “binds”.
